The values that follow come from patent publication US20240150441A1 (ARIZONA BOARD OF REGENTS ON BEHALF OF ARIZONA STATE …, published 2024).

The target of assay [1] is spike (S) protein of the authentic parental Omicron variant (B.1.1.529) of SARS-CoV-2 (SARS-CoV-2, B.1.1.529 (Omicron) variant, UniProt P0DTC2 14-1273). In words: cell-based or functional assay.
Assay [2] concerns the target spike (S) protein of the BA.4/5 SARS-CoV-2 pseudovirus (SARS-CoV-2, Omicron subvariant BA.4/5, UniProt P0DTC2 14-1273). The experiment in a line: cell-based or functional assay.

B1: plant-made tixagevimab (pTixagevimab) (antibody, V domains shown)
VH: QMQLVQSGPEVKKPGTSVKVSCKASGFTFMSSAVQWVRQARGQRLEWIGWIVIGSGNTNYAQKFQERVTITRDMSTSTAYMELSSLRSEDTAVYYCAAPYCSSISCNDGFDIWGQGTMVTVSS
VL: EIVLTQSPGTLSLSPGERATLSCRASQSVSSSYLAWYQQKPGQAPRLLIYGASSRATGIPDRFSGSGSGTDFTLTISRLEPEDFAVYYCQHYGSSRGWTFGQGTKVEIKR
As to B1, the “neutralization of authentic B.1.1.529 (Omicron) virus, foci-forming assay, IC50” value in assay [1] came to 19.7 µg/mL. Moreover, the “neutralization of BA.4/5 pseudovirus, luciferase reporter assay, IC50” value in assay [2] turned out to be 26.7 µg/mL.
